Experimental data from patent US11814447B2, “Peptide ligands for binding to EphA2” (BICYCLERD LIMITED, priority 2018, dated 2023).
Values belong to the binder of their own block, whether it stands above or below them. Starred links: 1 amine or outer side, 2 acyl side, 3 side chain; linkers in the order of their positions; H or OH if unused. Positions of bridges follow the written chain, without caps; N, C: chain ends. Non-standard residues stand in square brackets, D forms with d. Primed or numbered codes have the meaning given here. No end group written: not given here. TATA = O=C(CC[*:1])N1CN(C(=O)CC[*:2])CN(C(=O)CC[*:3])C1; Fl″ = fluorescein label (5(6)-carboxyfluorescein; TBMB = c1c(C[*:1])cc(C[*:3])cc1C[*:2]; hArg = N=C(N)NCCCC[C@H](N)C(=O)O; Dap = NC[C@H](N)C(=O)O; AF488 = AlexaFluor488; βAla = NCCC(=O)O; Sar = CNCC(=O)O

Legend:
[1] = biological target: T1, Mouse EphA2 (Ecto) (Mouse, UniProt Q03145 26-538); assay: fluorescence polarisation, direct binding
T1 construct: extracellular domain; not shown: Fc fusion or C-terminal polyHis

[2] = biological target: T2, Human EphA2 (Ecto), C-terminal polyHis (Human, UniProt P29317 24-537); assay: fluorescence polarisation competition; competitor fluorescent Compound 1
T2 construct: extracellular domain; also called EPH receptor A2; ephrin type-A receptor 2
Experimental: (§1) Peptides without a fluorescent tag were tested in competition with a peptide with a fluorescent tag and a known Kd (Table 2). Peptides were diluted to an appropriate concentration in assay buffer as described in the direct binding assay with a maximum of 5% DMSO, then serially diluted 1 in 2. […] Measurements were conducted as for the direct binding assay, however the gain was determined prior to the first measurement. Data analysis was in Systat Sigmaplot version 12.0 where the mP values were fit to a user defined cubic equation to generate a Ki value: […]

[3] = biological target: T2, Human EphA2 (Ecto), C-terminal polyHis; assay: fluorescence polarisation competition; competitor fluorescent Compound 12
Experimental: as §1

[4] = biological target: T2, Human EphA2 (Ecto), C-terminal polyHis; assay: fluorescence polarisation competition; competitor fluorescent Compound 66
Procedure, shortened: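 Unlabelled peptides competed against a fluorescently tagged peptide of known Kd. Peptides were diluted in direct-binding assay buffer (≤5% DMSO) and serially diluted 1 in 2. Read as in the direct binding assay, with gain set before the first read; mP values fit to a cubic equation to give Ki.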

[5] = biological target: EphA2 (species not stated in Examples 1-6 and Reference Examples 1-2) (Homo sapiens (Human), UniProt P29317 24-537); assay: fluorescence polarisation competition; fluorescent peptide not named
[6] = biological target: EphA2 (species not stated in Examples 1-6 and Reference Examples 1-2) (Homo sapiens (Human)) (UniProt P29317); assay: as above
[7] = biological target: Human EphA2 (Ecto) (Human) (UniProt P29317); assay: FP direct binding
Sequence of Human EphA2 (Ecto) (Human) (P29317 24-537): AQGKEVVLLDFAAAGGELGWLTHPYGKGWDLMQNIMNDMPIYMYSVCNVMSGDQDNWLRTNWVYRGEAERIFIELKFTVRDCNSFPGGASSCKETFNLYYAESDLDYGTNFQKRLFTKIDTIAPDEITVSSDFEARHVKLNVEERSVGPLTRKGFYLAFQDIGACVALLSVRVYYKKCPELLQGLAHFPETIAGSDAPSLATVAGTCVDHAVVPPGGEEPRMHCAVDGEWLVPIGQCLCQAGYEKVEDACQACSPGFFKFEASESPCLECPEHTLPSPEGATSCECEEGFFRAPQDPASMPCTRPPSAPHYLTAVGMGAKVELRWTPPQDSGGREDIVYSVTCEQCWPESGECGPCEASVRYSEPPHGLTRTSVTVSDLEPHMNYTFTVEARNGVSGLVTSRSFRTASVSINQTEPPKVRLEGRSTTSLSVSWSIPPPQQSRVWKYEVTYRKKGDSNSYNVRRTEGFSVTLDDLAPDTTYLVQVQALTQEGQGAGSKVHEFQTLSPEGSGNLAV

T2 sequence (P29317 24-537): as above
T1 sequence (Q03145 26-538): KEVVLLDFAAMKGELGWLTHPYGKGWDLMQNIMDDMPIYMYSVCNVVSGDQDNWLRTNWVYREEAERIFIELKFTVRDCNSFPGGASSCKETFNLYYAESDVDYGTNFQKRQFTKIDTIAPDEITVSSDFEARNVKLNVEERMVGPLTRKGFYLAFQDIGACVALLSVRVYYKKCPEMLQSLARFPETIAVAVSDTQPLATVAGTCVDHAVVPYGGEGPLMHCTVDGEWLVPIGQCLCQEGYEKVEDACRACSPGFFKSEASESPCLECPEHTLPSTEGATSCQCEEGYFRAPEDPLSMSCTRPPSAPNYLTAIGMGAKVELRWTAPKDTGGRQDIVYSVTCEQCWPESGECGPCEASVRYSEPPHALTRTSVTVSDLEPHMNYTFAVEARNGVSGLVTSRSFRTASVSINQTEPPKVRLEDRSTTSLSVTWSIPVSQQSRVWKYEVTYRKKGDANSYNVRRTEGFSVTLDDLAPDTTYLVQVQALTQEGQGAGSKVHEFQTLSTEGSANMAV
Sequence of EphA2 (species not stated in Examples 1-6 and Reference Examples 1-2) (P29317 24-537 limits assumed, form in doubt): as the sequence (P29317 24-537) above
Sequence of EphA2 (species not stated in Examples 1-6 and Reference Examples 1-2) (Homo sapiens (Human)) (P29317 24-537 limits assumed, form in doubt): as the sequence (P29317 24-537) above

B1: 55-03-05-N233 (peptide)
peptide: [βAla][Sar][Sar][Sar][Sar][Sar][Sar][Sar][Sar][Sar][Sar]H[dD]VPCPWGPFWCPVNRPGC
modifications: linker 16-23-30 via TBMB
notes: bicyclic peptide on trimethylene benzene scaffold
Ki [5]: 4.12 nM

Binder: Ac-[βAla][Sar][Sar][Sar][Sar][Sar][Sar][Sar][Sar][Sar][Sar]H[dD]VP[Dap]PWGPFW[Dap]PVNRPGC (linker 16-23-30 via TBMB) [55-03-05-N314]
Ki [6]: 136 nM

Binder: {Fl″}-[βAla][Sar][Sar][Sar][Sar][Sar][Sar][Sar][Sar][Sar][Sar]A[hArg]DCPLVNPLCLHPGWTC (linker 15-22-29 via TATA) [Bicycle Compound 10 (TATA, Table 11)]
Kd [7]: 9.07 nM

Next, values leading:

Kd [1]: 0.8 nM
Binder: AF488-[βAla][Sar][Sar][Sar][Sar][Sar][Sar][Sar][Sar][Sar][Sar]H[dD]VPCPWGPFWCPVNRPGCA (linker 16-23-30 via TBMB) [Bicycle Compound Number 139 (TBMB scaffold)]

Ki [2]: 144 nM | Ki [3]: 92.2 nM | Ki [4]: 82.5 nM
Binder: ACVPQGIWCALQFEPCA (linker 2-9-16 via TBMB (inferred), also called Compound 63) [Bicycle Compound Number 63 (TBMB scaffold)]

Ki [2]: 83.4 nM
Binder: ACRNIPTMCPFGPVWCA (linker 2-9-16 via TBMB, also called Compound 32) [Bicycle Compound Number 32 (TBMB scaffold)]
